Experiment [1] has as its target T1, mouse FcγRII (mouse, UniProt P08101 30-210).
T1 construct: Extracellular domain with C-terminal His tag; also called mFcγRII; mFcgRII
T1 sequence: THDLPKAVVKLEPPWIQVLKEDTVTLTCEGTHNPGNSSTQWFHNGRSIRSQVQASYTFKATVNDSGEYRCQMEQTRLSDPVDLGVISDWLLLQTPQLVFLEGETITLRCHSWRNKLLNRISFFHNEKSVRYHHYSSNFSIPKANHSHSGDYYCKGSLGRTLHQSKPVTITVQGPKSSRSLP
As to the kind of experiment: SPR (Biacore T200); KD of H237-mIgG1/MRAL-k0 / KD of variant. The text has this: (§1) The antibody H chain variable region used was the variable region H237 (SEQ ID NO: 1) of the H chain VH3-IgG1 of the anti-IL-6 receptor antibody Fv4-IgG1 described in WO2009/125825. The antibody L chain commonly used was the L chain MRAL-k0 (SEQ ID NO: 2) of the anti-IL-6 receptor antibody tocilizumab. […] These variants were expressed and purified by the method of Reference Example 1 and evaluated for their binding to mFcγRII and mFcγRIII by the method of Reference Example 2 using Biacore T200.
(§2) Each altered antibody was analyzed for its interaction with each Fcγ receptor prepared above using Biacore T100 (GE Healthcare Japan Corp.), Biacore T200 (GE Healthcare Japan Corp.), Biacore A100, or Biacore 4000. The running buffer used was HBS-EP+ (GE Healthcare Japan Corp.). The assay temperature was set to 25° C. The sensor chips used were chips prepared by immobilizing Protein L (ACTIGEN or BioVision) onto Series S Sensor Chip CM5 (GE Healthcare Japan Corp.) or Series S Sensor Chip CM4 (GE Healthcare Japan Corp.) by the amine coupling method.

The target of experiment [2] is T2, mouse FcγRIII (mouse, UniProt P08508 31-215).
T2 construct: Extracellular domain with C-terminal His tag; also called mFcγRIII; mFcgRIII
T2 chain: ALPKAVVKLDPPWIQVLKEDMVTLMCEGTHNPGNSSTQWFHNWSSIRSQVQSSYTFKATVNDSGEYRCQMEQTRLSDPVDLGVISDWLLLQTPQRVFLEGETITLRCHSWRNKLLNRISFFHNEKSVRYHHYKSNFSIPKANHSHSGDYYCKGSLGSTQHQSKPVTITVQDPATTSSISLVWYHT
The description is as above.
From the text: as §1, §2

Experiment [3] addresses T1, mouse FcγRII. As to the kind of experiment: SPR (Biacore T200); KD of H237-MB630/MRAL-k0 / KD of variant.
From the text: as §1, §2
(§3) In order to calculate the KD value of each altered antibody for FcγR, kinetic analysis was conducted according to the following method: first, the antibody of interest was captured onto any of these chips and allowed to interact with mFcγR diluted with a running buffer. For the obtained sensorgram, the assay results were globally fit into the 1:1 Langmuir binding model using Biacore Evaluation Software to calculate an association rate constant ka (L/mol/s) and a dissociation rate constant kd (1/s). From these values, the dissociation constant KD (mol/L) was calculated.

In experiment [4] the target is T2, mouse FcγRIII. Described as above.
From the text: as §1, §2, §3

B1: MB760 (antibody, mouse IgG1, kappa)
heavy: QVQLQESGPGLVKPSETLSLTCAVSGHSISHDHAWSWVRQPPGEGLEWIGFISYSGITNYNPSLQGRVTISRDNSKNTLYLQMNSLRAEDTAVYYCARSLARTTAMDYWGEGTLVTVSSAKTTPPSVYPLAPGSAAQTNSMVTLGCLVKGYFPEPVTVTWNSGSLSSGVHTFPAVLQSDLYTLSSSVTVPSSTWPSETVTCNVAHPASSTKVDKKIVPRDCGCKPCICEPNEVELVFIFPPKPKDVLTITLTPKVTCVVVDISKDDPEVQFSWFVDDVEVHTAQTQPREEQFNLTFRSVSELPIMHQDWLNGKEFKCRVDSAAFPAPIERTISKTKGRPKAPQVYTIPPPKEQMAKDKVSLTCMITDFFPEDITVEWQWNGQPAENYKNTQPIMDTDGSYFVYSKLNVQKSNWEAGNTFTCSVLHEGLHNHHTEKSLSHSPGK
light: not shown
notes: CH name; VH H237 + CH, L chain MRAL-k0; copies: 2 + 2
As to B1, in the experiment with mouse FcγRII [1], the “relative mFcγRII-binding activity (mIgG1 = 1)” value was determined as 14.1 fold. Moreover, in the experiment with mouse FcγRIII [2], the “relative mFcγRIII-binding activity (mIgG1 = 1)” value stood at 0.28 fold. The “Relative mFcγRII-binding activity (MB630 = 1)” value with mouse FcγRII [3] is 0.85 fold. In addition, the “Relative mFcγRIII-binding activity (MB630 = 1)” value with mouse FcγRIII [4] was determined as 1.42 fold.

B2: MB762 (antibody, mouse IgG1, kappa)
heavy: QVQLQESGPGLVKPSETLSLTCAVSGHSISHDHAWSWVRQPPGEGLEWIGFISYSGITNYNPSLQGRVTISRDNSKNTLYLQMNSLRAEDTAVYYCARSLARTTAMDYWGEGTLVTVSSAKTTPPSVYPLAPGSAAQTNSMVTLGCLVKGYFPEPVTVTWNSGSLSSGVHTFPAVLQSDLYTLSSSVTVPSSTWPSETVTCNVAHPASSTKVDKKIVPRDCGCKPCICEPNEVELVFIFPPKPKDVLTITLTPKVTCVVVDISKDDPEVQFSWFVDDVEVHTAQTQPREEQENSTFRSVSELPIMHQDWLNGKEFKCRVNSAAFPAPIEKTISKTKGRPKAPQVYTIPPPKEQMAKDKVSLTCMITDFFPEDITVEWQWNGQPAENYKNTQPIMDTDGSYFVYSKLNVQKSNWEAGNTFTCSVLHEGLHNHHTEKSLSHSPGK
light: not shown
notes: as for B1
Take B2: the “relative mFcγRII-binding activity (mIgG1 = 1)” value in the experiment with mouse FcγRII [1] came to 4.4 fold. Also, the “relative mFcγRIII-binding activity (mIgG1 = 1)” value with mouse FcγRIII [2] turned out to be 0.09 fold. Also, the “Relative mFcγRII-binding activity (MB630 = 1)” value in the experiment with mouse FcγRII [3] was 0.4 fold. Further, the “Relative mFcγRIII-binding activity (MB630 = 1)” value in the experiment with mouse FcγRIII [4] is 0.51 fold.

B3: MB765 (antibody, mouse IgG1, kappa)
heavy: QVQLQESGPGLVKPSETLSLTCAVSGHSISHDHAWSWVRQPPGEGLEWIGFISYSGITNYNPSLQGRVTISRDNSKNTLYLQMNSLRAEDTAVYYCARSLARTTAMDYWGEGTLVTVSSAKTTPPSVYPLAPGSAAQTNSMVTLGCLVKGYFPEPVTVTWNSGSLSSGVHTFPAVLQSDLYTLSSSVTVPSSTWPSETVTCNVAHPASSTKVDKKIVPRDCGCKPCICEPNEVELVFIFPPKPKDVLTITLTPKVTCVVVDISKDDPEVQFSWFVDDVEVHTAQTQPREEQFNSTFRSVSELPIMHQDWLNGKEFKCRVLSAAFPAPIEKTISKTKGRPKAPQVYTIPPPKEQMAKDKVSLTCMITDFFPEDITVEWQWNGQPAENYKNTQPIMDTDGSYFVYSKLNVQKSNWEAGNTFTCSVLHEGLHNHHTEKSLSHSPGK
light: not shown
notes: as for B1
For the molecule B3, the “relative mFcγRII-binding activity (mIgG1 = 1)” value in the experiment with mouse FcγRII [1] is 5.3 fold. Moreover, the “relative mFcγRIII-binding activity (mIgG1 = 1)” value with mouse FcγRIII [2] turned out to be 0.11 fold. Besides, the “Relative mFcγRII-binding activity (MB630 = 1)” value with mouse FcγRII [3] was 0.49 fold. In addition, the “Relative mFcγRIII-binding activity (MB630 = 1)” value in the experiment with mouse FcγRIII [4] came out at 0.64 fold.

B4: MB766 (antibody, mouse IgG1, kappa)
heavy: QVQLQESGPGLVKPSETLSLTCAVSGHSISHDHAWSWVRQPPGEGLEWIGFISYSGITNYNPSLQGRVTISRDNSKNTLYLQMNSLRAEDTAVYYCARSLARTTAMDYWGEGTLVTVSSAKTTPPSVYPLAPGSAAQTNSMVTLGCLVKGYFPEPVTVTWNSGSLSSGVHTFPAVLQSDLYTLSSSVTVPSSTWPSETVTCNVAHPASSTKVDKKIVPRDCGCKPCICEPNEVELVFIFPPKPKDVLTITLTPKVTCVVVDISKDDPEVQFSWFVDDVEVHTAQTQPREEQFNSTFRSVSELPIMHQDWLNGKEFKCRVMSAAFPAPIEKTISKTKGRPKAPQVYTIPPPKEQMAKDKVSLTCMITDFFPEDITVEWQWNGQPAENYKNTQPIMDTDGSYFVYSKLNVQKSNWEAGNTFTCSVLHEGLHNHHTEKSLSHSPGK
light: not shown
notes: as for B1
With B4, in the experiment with mouse FcγRII [1], the “relative mFcγRII-binding activity (mIgG1 = 1)” value was 14 fold. Also, the “relative mFcγRIII-binding activity (mIgG1 = 1)” value with mouse FcγRIII [2] was 0.27 fold. Besides, the “Relative mFcγRII-binding activity (MB630 = 1)” value with mouse FcγRII [3] turned out to be 1.29 fold. In the experiment with mouse FcγRIII [4], the “Relative mFcγRIII-binding activity (MB630 = 1)” value stood at 1.55 fold.

B5: MB761 (antibody, mouse IgG1, kappa)
heavy: QVQLQESGPGLVKPSETLSLTCAVSGHSISHDHAWSWVRQPPGEGLEWIGFISYSGITNYNPSLQGRVTISRDNSKNTLYLQMNSLRAEDTAVYYCARSLARTTAMDYWGEGTLVTVSSAKTTPPSVYPLAPGSAAQTNSMVTLGCLVKGYFPEPVTVTWNSGSLSSGVHTFPAVLQSDLYTLSSSVTVPSSTWPSETVTCNVAHPASSTKVDKKIVPRDCGCKPCICEPNEVELVFIFPPKPKDVLTITLTPKVTCVVVDISKDDPEVQFSWFVDDVEVHTAQTQPREEQFNMTFRSVSELPIMHQDWLNGKEFKCRVDSAAFPAPIERTISKTKGRPKAPQVYTIPPPKEQMAKDKVSLTCMITDFFPEDITVEWQWNGQPAENYKNTQPIMDTDGSYFVYSKLNVQKSNWEAGNTFTCSVLHEGLHNHHTEKSLSHSPGK
light: not shown
notes: as for B1
With B5, the “relative mFcγRII-binding activity (mIgG1 = 1)” value in the experiment with mouse FcγRII [1] was determined as 13.4 fold. For the same molecule, in the experiment with mouse FcγRIII [2], the “relative mFcγRIII-binding activity (mIgG1 = 1)” value was found to be 0.18 fold. Also, the “Relative mFcγRII-binding activity (MB630 = 1)” value with mouse FcγRII [3] stood at 0.81 fold. Also, the “Relative mFcγRIII-binding activity (MB630 = 1)” value in the experiment with mouse FcγRIII [4] was determined as 0.92 fold.

B6: MB764 (antibody, mouse IgG1, kappa)
heavy: QVQLQESGPGLVKPSETLSLTCAVSGHSISHDHAWSWVRQPPGEGLEWIGFISYSGITNYNPSLQGRVTISRDNSKNTLYLQMNSLRAEDTAVYYCARSLARTTAMDYWGEGTLVTVSSAKTTPPSVYPLAPGSAAQTNSMVTLGCLVKGYFPEPVTVTWNSGSLSSGVHTFPAVLQSDLYTLSSSVTVPSSTWPSETVTCNVAHPASSTKVDKKIVPRDCGCKPCICEPNEVELVFIFPPKPKDVLTITLTPKVTCVVVDISKDDPEVQFSWFVDDVEVHTAQTQPREEQTNSTFRSVSELPIMHQDWLNGKEFKCRVNSAAFPAPIEKTISKTKGRPKAPQVYTIPPPKEQMAKDKVSLTCMITDFFPEDITVEWQWNGQPAENYKNTQPIMDTDGSYFVYSKLNVQKSNWEAGNTFTCSVLHEGLHNHHTEKSLSHSPGK
light: not shown
notes: as for B1
Turning to B6, in the experiment with mouse FcγRII [1], the “relative mFcγRII-binding activity (mIgG1 = 1)” value amounted to 2.5 fold. Further, the “relative mFcγRIII-binding activity (mIgG1 = 1)” value with mouse FcγRIII [2] was determined as 0.05 fold. In the experiment with mouse FcγRII [3], the “Relative mFcγRII-binding activity (MB630 = 1)” value was 0.23 fold. Moreover, the “Relative mFcγRIII-binding activity (MB630 = 1)” value with mouse FcγRIII [4] stood at 0.32 fold.

B7: MB763 (antibody, mouse IgG1, kappa)
heavy: QVQLQESGPGLVKPSETLSLTCAVSGHSISHDHAWSWVRQPPGEGLEWIGFISYSGITNYNPSLQGRVTISRDNSKNTLYLQMNSLRAEDTAVYYCARSLARTTAMDYWGEGTLVTVSSAKTTPPSVYPLAPGSAAQTNSMVTLGCLVKGYFPEPVTVTWNSGSLSSGVHTFPAVLQSDLYTLSSSVTVPSSTWPSETVTCNVAHPASSTKVDKKIVPRDCGCKPCICEPNEVELVFIFPPKPKDVLTITLTPKVTCVVVDISKDDPEVQFSWFVDDVEVHTAQTQPREEQNNSTFRSVSELPIMHQDWLNGKEFKCRVNSAAFPAPIEKTISKTKGRPKAPQVYTIPPPKEQMAKDKVSLTCMITDFFPEDITVEWQWNGQPAENYKNTQPIMDTDGSYFVYSKLNVQKSNWEAGNTFTCSVLHEGLHNHHTEKSLSHSPGK
light: not shown
notes: as for B1
For B7, the “relative mFcγRII-binding activity (mIgG1 = 1)” value with mouse FcγRII [1] was 3.4 fold. Further, the “relative mFcγRIII-binding activity (mIgG1 = 1)” value with mouse FcγRIII [2] worked out at 0.07 fold. The “Relative mFcγRII-binding activity (MB630 = 1)” value with mouse FcγRII [3] stood at 0.31 fold. Moreover, the “Relative mFcγRIII-binding activity (MB630 = 1)” value with mouse FcγRIII [4] stood at 0.41 fold.

Source of the values: US20150203577A1 (Chugai, published 2015).
